Experimental findings from paper PMC7916210, “Identification of Novel phoP-phoQ Regulated Genes that Contribute to Polymyxin B Tolerance in Pseudomonas aeruginosa” are described below.

To fix the notation:
B1: PPA14_46900 promoter probe (dsDNA)
DNA 1: GGTTCGTTCAGAAATTGTTCAGGCTTCGTTCAGGCCCGATTCAGGCCGGGTTCAGCAGAA
DNA 2: TTCTGCTGAACCCGGCCTGAATCGGGCCTGAACGAAGCCTGAACAATTTCTGAACGAACC
B2: PPA14_52350 promoter probe (dsDNA)
DNA 1: CATTTGCTGGTGTTCGTTCAGCGATGGTTCAGCTTGCCGTGGGCATAGTGGCGGCTTGCA
DNA 2: TGCAAGCCGCCACTATGCCCACGGCAAGCTGAACCATCGCTGAACGAACACCAGCAAATG
B3: PPA14_50740 promoter probe (dsDNA)
DNA 1: AATCGATTCAGCAATGGTACAGGTTCGTTCAGTTTCGACCGAACCCTCCCGCTTTCATCG
DNA 2: CGATGAAAGCGGGAGGGTTCGGTCGAAACTGAACGAACCTGTACCATTGCTGAATCGATT
B4: PPA14_11970 promoter probe (dsDNA)
DNA 1: TGTCTTTGTAACAGGAAATCCTCGATGTTCAGTCCGAAACCGAGCTGCGCGCCCCAGTTG
DNA 2: CAACTGGGGCGCGCAGCTCGGTTTCGGACTGAACATCGAGGATTTCCTGTTACAAAGACA

For this series, the target named is PhoP-His (UniProt A0A0H2Z7U0 1-225). In words: EMSA; PhoP 0, 2, 4 or 8 uM. To be noted: protein: recombinant; tags: C-terminal 6xHis; chain copies: 2; blunt. In general terms: In EMSA bound probe runs differently from free probe, usually more slowly.
Turning to B1, the binding result is reported as “binds”. To B2 belongs “binds”. To B3 belongs “binds”. The value for B4 was “binds”.
